Results taken from US20110105394A1 (Novo Nordisk, published 2011).
*1 amine or outer side, *2 acyl side, *3 side chain or, on linkers, in order; H or OH if unused. Bridges are numbered along the chain shown (N, C = ends). Where no end group is shown, it is not given here. Side-chain parts run from the residue outwards. The star is where a group is joined. X2 = (S)‑4‑Carboxy‑4‑(19-carboxynonadecanoylamino)butyryl, O=C(O)CCCCCCCCCCCCCCCCCCC(=O)N[C@@H](CCC(=O)*)C(=O)O; X1 = (S)‑4‑Carboxy‑4‑(17-carboxyheptadecanoylamino)butyryl, O=C(O)CCCCCCCCCCCCCCCCC(=O)N[C@@H](CCC(=O)*)C(=O)O; C20 diacid = O=C(O)CCCCCCCCCCCCCCCCCCC(=O)*; γGlu = O=C(O)[C@H](CCC(=O)[*:2])N[*:1]; Trx = NC[C@H]1CC[C@H](C(=O)O)CC1; AEEA = NCCOCCOCC(=O)O

T1: Amylin 3(a) receptor (human calcitonin receptor (CTa) with RAMP-3) (human, UniProt P30988 25-474; O60896 24-148, limits assumed)
T1 sequence (looked up) 1: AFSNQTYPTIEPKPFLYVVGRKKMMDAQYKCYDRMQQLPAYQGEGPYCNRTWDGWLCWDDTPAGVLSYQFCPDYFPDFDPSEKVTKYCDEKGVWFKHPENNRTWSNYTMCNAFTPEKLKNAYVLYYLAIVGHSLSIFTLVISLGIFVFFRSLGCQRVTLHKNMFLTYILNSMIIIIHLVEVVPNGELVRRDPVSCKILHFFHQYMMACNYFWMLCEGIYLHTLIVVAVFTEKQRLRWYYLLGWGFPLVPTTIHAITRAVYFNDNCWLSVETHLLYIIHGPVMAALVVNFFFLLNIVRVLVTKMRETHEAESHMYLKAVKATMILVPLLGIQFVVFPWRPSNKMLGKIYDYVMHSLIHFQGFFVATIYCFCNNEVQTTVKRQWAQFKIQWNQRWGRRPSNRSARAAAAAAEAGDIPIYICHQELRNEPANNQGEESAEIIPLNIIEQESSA
T1 sequence (looked up) 2: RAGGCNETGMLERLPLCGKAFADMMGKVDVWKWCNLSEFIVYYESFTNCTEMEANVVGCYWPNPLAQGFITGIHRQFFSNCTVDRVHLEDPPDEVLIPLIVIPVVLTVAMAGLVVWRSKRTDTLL


The binders below were run against T1, Amylin 3(a) receptor (human calcitonin …) (assay: cell-based or functional assay).

Row | Binder | Potency Luciferase
1 | X2-ERECNTATCATQRLANFLHHSSQNFGAPLSSTNVGSNTY-NH2 (disulfide 4-9; SMILES CC(C)C[C@H](NC(=O)[C@H](CCCNC(=N)N)NC(=O)[C@H](CCC(N)=O)NC(=O)[C@@H](NC(=O)[C@H](C)NC(=O)[C@@H]1CSSC[C@H](NC(=O)[C@H](CCC(=O)O)NC(=O)[C@H](CCCNC(=N)N)NC(=O)[C@H](CCC(=O)O)NC(=O)CC[C@H](NC(=O)CCCCCCCCCCCCCCCCCCC(=O)O)C(=O)O)C(=O)N[C@@H](CC(N)=O)C(=O)N[C@@H]([C@@H](C)O)C(=O)N[C@@H](C)C(=O)N[C@@H]([C@@H](C)O)C(=O)N1)[C@@H](C)O)C(=O)N[C@@H](C)C(=O)N[C@@H](CC(N)=O)C(=O)N[C@@H](Cc1ccccc1)C(=O)N[C@@H](CC(C)C)C(=O)N[C@@H](Cc1c[nH]cn1)C(=O)N[C@@H](Cc1c[nH]cn1)C(=O)N[C@@H](CO)C(=O)N[C@@H](CO)C(=O)N[C@@H](CCC(N)=O)C(=O)N[C@@H](CC(N)=O)C(=O)N[C@@H](Cc1ccccc1)C(=O)NCC(=O)N[C@@H](C)C(=O)N1CCC[C@H]1C(=O)N[C@@H](CC(C)C)C(=O)N[C@@H](CO)C(=O)N[C@@H](CO)C(=O)N[C@H](C(=O)N[C@@H](CC(N)=O)C(=O)N[C@H](C(=O)NCC(=O)N[C@@H](CO)C(=O)N[C@@H](CC(N)=O)C(=O)N[C@H](C(=O)N[C@@H](Cc1ccc(O)cc1)C(N)=O)[C@@H](C)O)C(C)C)[C@@H](C)O) | 0.1 nM
2 | {C20 diacid-γGlu-AEEA}-HCNTATCATQRLANFLHHSSNNFGPILPPTNVGSNTY-NH2 (disulfide 2-7) | 0.09 nM
3 | HRKCNTATCATQRLANFLHHSSNNFGPILPPTNVGSNTY-NH2 (disulfide 4-9; not fully specified (N-terminus); printed as N-alpha-[(S)-4-Carboxy-4-(19-carboxynonadecanoylamino)butyryl]-His-Arg-[His17]-pramlintide) [N-alpha-[(S)-4-Carboxy-4-(19-carboxynonadecanoylamino)butyryl]-His-Arg-[His17]-pramlintide] | 0.1 nM
4 | {C20 diacid-γGlu-AEEA}-HHCNTATCATQRLANFLRHSSNNFGPILPPTNVGSNTY-NH2 (disulfide 3-8; SMILES CC[C@H](C)[C@H](NC(=O)[C@@H]1CCCN1C(=O)CNC(=O)[C@H](Cc1ccccc1)NC(=O)[C@H](CC(N)=O)NC(=O)[C@H](CC(N)=O)NC(=O)[C@H](CO)NC(=O)[C@H](CO)NC(=O)[C@H](Cc1c[nH]cn1)NC(=O)[C@H](CCCNC(=N)N)NC(=O)[C@H](CC(C)C)NC(=O)[C@H](Cc1ccccc1)NC(=O)[C@H](CC(N)=O)NC(=O)[C@H](C)NC(=O)[C@H](CC(C)C)NC(=O)[C@H](CCCNC(=N)N)NC(=O)[C@H](CCC(N)=O)NC(=O)[C@@H](NC(=O)[C@H](C)NC(=O)[C@@H]1CSSC[C@H](NC(=O)[C@H](Cc2c[nH]cn2)NC(=O)[C@H](Cc2c[nH]cn2)NC(=O)COCCOCCNC(=O)CC[C@H](NC(=O)CCCCCCCCCCCCCCCCCCC(=O)O)C(=O)O)C(=O)N[C@@H](CC(N)=O)C(=O)N[C@@H]([C@@H](C)O)C(=O)N[C@@H](C)C(=O)N[C@@H]([C@@H](C)O)C(=O)N1)[C@@H](C)O)C(=O)N[C@@H](CC(C)C)C(=O)N1CCC[C@H]1C(=O)N1CCC[C@H]1C(=O)N[C@H](C(=O)N[C@@H](CC(N)=O)C(=O)N[C@H](C(=O)NCC(=O)N[C@@H](CO)C(=O)N[C@@H](CC(N)=O)C(=O)N[C@H](C(=O)N[C@@H](Cc1ccc(O)cc1)C(N)=O)[C@@H](C)O)C(C)C)[C@@H](C)O) | 0.2 nM
5 | {C20 diacid-γGlu-AEEA}-HHCNTATCATQRLANFLHHSSNNFGPILPPTNVGSNTY-NH2 (disulfide 3-8; SMILES CC[C@H](C)[C@H](NC(=O)[C@@H]1CCCN1C(=O)CNC(=O)[C@H](Cc1ccccc1)NC(=O)[C@H](CC(N)=O)NC(=O)[C@H](CC(N)=O)NC(=O)[C@H](CO)NC(=O)[C@H](CO)NC(=O)[C@H](Cc1c[nH]cn1)NC(=O)[C@H](Cc1c[nH]cn1)NC(=O)[C@H](CC(C)C)NC(=O)[C@H](Cc1ccccc1)NC(=O)[C@H](CC(N)=O)NC(=O)[C@H](C)NC(=O)[C@H](CC(C)C)NC(=O)[C@H](CCCNC(=N)N)NC(=O)[C@H](CCC(N)=O)NC(=O)[C@@H](NC(=O)[C@H](C)NC(=O)[C@@H]1CSSC[C@H](NC(=O)[C@H](Cc2c[nH]cn2)NC(=O)[C@H](Cc2c[nH]cn2)NC(=O)COCCOCCNC(=O)CC[C@H](NC(=O)CCCCCCCCCCCCCCCCCCC(=O)O)C(=O)O)C(=O)N[C@@H](CC(N)=O)C(=O)N[C@@H]([C@@H](C)O)C(=O)N[C@@H](C)C(=O)N[C@@H]([C@@H](C)O)C(=O)N1)[C@@H](C)O)C(=O)N[C@@H](CC(C)C)C(=O)N1CCC[C@H]1C(=O)N1CCC[C@H]1C(=O)N[C@H](C(=O)N[C@@H](CC(N)=O)C(=O)N[C@H](C(=O)NCC(=O)N[C@@H](CO)C(=O)N[C@@H](CC(N)=O)C(=O)N[C@H](C(=O)N[C@@H](Cc1ccc(O)cc1)C(N)=O)[C@@H](C)O)C(C)C)[C@@H](C)O) | 0.1 nM
6 | {C20 diacid-Trx-γGlu}-HCNTATCATQRLANFLHHSSNNFGPILPPTNVGSNTY-NH2 (disulfide 2-7; SMILES CC[C@H](C)[C@H](NC(=O)[C@@H]1CCCN1C(=O)CNC(=O)[C@H](Cc1ccccc1)NC(=O)[C@H](CC(N)=O)NC(=O)[C@H](CC(N)=O)NC(=O)[C@H](CO)NC(=O)[C@H](CO)NC(=O)[C@H](Cc1c[nH]cn1)NC(=O)[C@H](Cc1c[nH]cn1)NC(=O)[C@H](CC(C)C)NC(=O)[C@H](Cc1ccccc1)NC(=O)[C@H](CC(N)=O)NC(=O)[C@H](C)NC(=O)[C@H](CC(C)C)NC(=O)[C@H](CCCNC(=N)N)NC(=O)[C@H](CCC(N)=O)NC(=O)[C@@H](NC(=O)[C@H](C)NC(=O)[C@@H]1CSSC[C@H](NC(=O)[C@H](Cc2c[nH]cn2)NC(=O)CC[C@H](NC(=O)[C@H]2CC[C@H](CNC(=O)CCCCCCCCCCCCCCCCCCC(=O)O)CC2)C(=O)O)C(=O)N[C@@H](CC(N)=O)C(=O)N[C@@H]([C@@H](C)O)C(=O)N[C@@H](C)C(=O)N[C@@H]([C@@H](C)O)C(=O)N1)[C@@H](C)O)C(=O)N[C@@H](CC(C)C)C(=O)N1CCC[C@H]1C(=O)N1CCC[C@H]1C(=O)N[C@H](C(=O)N[C@@H](CC(N)=O)C(=O)N[C@H](C(=O)NCC(=O)N[C@@H](CO)C(=O)N[C@@H](CC(N)=O)C(=O)N[C@H](C(=O)N[C@@H](Cc1ccc(O)cc1)C(N)=O)[C@@H](C)O)C(C)C)[C@@H](C)O) | 0.1 nM
7 | X1-HCNTATCATQRLANFLHHSSNNFGPILPPTNVGSNTY-NH2 (disulfide 2-7) [N-alpha-[(S)-4-Carboxy-4-(17-carboxyheptadecanoylamino)butyryl]-[His1,His17]-pramlintide] | 0.08 nM

Second part, the binder after the results:

Row | Potency Luciferase | Binder
8 | 0.1 nM | HHCNTATCATQRLANFLRHSSNNFGPILPPTNVGSNTY-NH2 (disulfide 3-8; not fully specified (N-terminus); printed as N-alpha-[(S)-4-Carboxy-4-(19-carboxynonadecanoylamino)butyryl]-His-[His1,Arg17]-pramlintide) [N-alpha-[(S)-4-Carboxy-4-(19-carboxynonadecanoylamino)butyryl]-His-[His1,Arg17]-pramlintide]
9 | 0.1 nM | {C20 diacid-γGlu}-HCNTATCATQRLANFLRHSSNNFGPILPPTNVGSNTY-NH2 (disulfide 2-7; SMILES CC[C@H](C)[C@H](NC(=O)[C@@H]1CCCN1C(=O)CNC(=O)[C@H](Cc1ccccc1)NC(=O)[C@H](CC(N)=O)NC(=O)[C@H](CC(N)=O)NC(=O)[C@H](CO)NC(=O)[C@H](CO)NC(=O)[C@H](Cc1c[nH]cn1)NC(=O)[C@H](CCCNC(=N)N)NC(=O)[C@H](CC(C)C)NC(=O)[C@H](Cc1ccccc1)NC(=O)[C@H](CC(N)=O)NC(=O)[C@H](C)NC(=O)[C@H](CC(C)C)NC(=O)[C@H](CCCNC(=N)N)NC(=O)[C@H](CCC(N)=O)NC(=O)[C@@H](NC(=O)[C@H](C)NC(=O)[C@@H]1CSSC[C@H](NC(=O)[C@H](Cc2c[nH]cn2)NC(=O)CC[C@H](NC(=O)CCCCCCCCCCCCCCCCCCC(=O)O)C(=O)O)C(=O)N[C@@H](CC(N)=O)C(=O)N[C@@H]([C@@H](C)O)C(=O)N[C@@H](C)C(=O)N[C@@H]([C@@H](C)O)C(=O)N1)[C@@H](C)O)C(=O)N[C@@H](CC(C)C)C(=O)N1CCC[C@H]1C(=O)N1CCC[C@H]1C(=O)N[C@H](C(=O)N[C@@H](CC(N)=O)C(=O)N[C@H](C(=O)NCC(=O)N[C@@H](CO)C(=O)N[C@@H](CC(N)=O)C(=O)N[C@H](C(=O)N[C@@H](Cc1ccc(O)cc1)C(N)=O)[C@@H](C)O)C(C)C)[C@@H](C)O) [N-alpha-[(S)-4-Carboxy-4-(19-carboxynonadecanoylamino)butyryl]-[His1,Arg17]-pramlintide]
10 | 0.06 nM | HHHCNTATCATQRLANFLHHSSNNFGPILPPTNVGSNTY-NH2 (disulfide 4-9; not fully specified (N-terminus); printed as N-alpha-[(S)-4-Carboxy-4-(19-carboxynonadecanoylamino)butyryl]-His-His-[His1,His17]-pramlintide) [N-alpha-[(S)-4-Carboxy-4-(19-carboxynonadecanoylamino)butyryl]-His-His-[His1,His17]-pramlintide]
11 | 2 nM | KCK([Glu-Glu-Glu-Glu-C20 diacid])TATCATQRLANFLHHSSDNFGPILPPTNVGSNTY-NH2 (disulfide 2-7) [N-epsilon3-(19-carboxynonadecanoyl-Glu-Glu-Glu-Glu)-[Lys3,His17,Asp21]-pramlintide]
